# T1: fHbp m002333 (Neisseria meningitidis, engineered fHbp …, chimera)
# T1 chain: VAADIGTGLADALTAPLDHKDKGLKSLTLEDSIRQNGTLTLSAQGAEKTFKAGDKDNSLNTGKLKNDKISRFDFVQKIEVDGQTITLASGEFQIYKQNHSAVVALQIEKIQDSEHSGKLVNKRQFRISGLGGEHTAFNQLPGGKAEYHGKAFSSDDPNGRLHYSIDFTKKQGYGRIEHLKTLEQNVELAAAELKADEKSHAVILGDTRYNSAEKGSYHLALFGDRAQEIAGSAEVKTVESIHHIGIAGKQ
# T2: fHbp m002417 (Neisseria meningitidis fHbp v3.28, …, chimera)
# T2 chain: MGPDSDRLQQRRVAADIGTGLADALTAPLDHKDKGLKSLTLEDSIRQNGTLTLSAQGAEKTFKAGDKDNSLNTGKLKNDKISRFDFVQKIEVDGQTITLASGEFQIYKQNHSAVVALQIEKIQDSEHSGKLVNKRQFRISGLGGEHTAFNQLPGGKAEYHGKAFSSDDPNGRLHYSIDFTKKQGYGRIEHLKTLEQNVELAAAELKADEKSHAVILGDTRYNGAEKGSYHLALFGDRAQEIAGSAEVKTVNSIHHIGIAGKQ
# T3: fHbp m001207 (Neisseria meningitidis fHbp v3.28-based …, point mutant)
# T3 chain: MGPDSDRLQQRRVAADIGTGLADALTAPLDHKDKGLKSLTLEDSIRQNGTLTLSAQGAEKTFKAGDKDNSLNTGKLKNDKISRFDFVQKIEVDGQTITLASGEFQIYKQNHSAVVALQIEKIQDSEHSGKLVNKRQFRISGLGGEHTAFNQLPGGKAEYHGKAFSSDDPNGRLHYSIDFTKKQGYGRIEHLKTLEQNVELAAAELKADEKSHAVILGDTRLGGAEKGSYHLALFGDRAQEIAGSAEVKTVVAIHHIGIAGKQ
# T4: fHbp m001768 (Neisseria meningitidis, engineered fHbp …, point mutant)
# T4 chain: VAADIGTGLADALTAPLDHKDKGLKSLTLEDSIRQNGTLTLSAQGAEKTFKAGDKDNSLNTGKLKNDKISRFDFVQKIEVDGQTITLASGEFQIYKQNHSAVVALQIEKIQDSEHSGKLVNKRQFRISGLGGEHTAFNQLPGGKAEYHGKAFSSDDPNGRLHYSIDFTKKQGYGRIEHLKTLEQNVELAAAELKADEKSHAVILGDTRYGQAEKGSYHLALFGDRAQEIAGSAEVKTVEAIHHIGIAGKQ
# T5: fHbp m001661 (Neisseria meningitidis, fHbp …, point mutant)
# T5 chain: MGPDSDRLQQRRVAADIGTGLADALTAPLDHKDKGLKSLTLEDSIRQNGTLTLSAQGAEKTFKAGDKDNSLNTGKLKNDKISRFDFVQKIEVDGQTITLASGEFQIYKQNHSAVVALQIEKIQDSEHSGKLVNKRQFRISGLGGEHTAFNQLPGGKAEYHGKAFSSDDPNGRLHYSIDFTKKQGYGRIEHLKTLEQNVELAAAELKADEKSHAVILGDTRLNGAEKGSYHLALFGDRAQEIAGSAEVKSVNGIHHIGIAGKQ
# T6: fHbp m001690 (Neisseria meningitidis, engineered fHbp …, point mutant)
# T6 chain: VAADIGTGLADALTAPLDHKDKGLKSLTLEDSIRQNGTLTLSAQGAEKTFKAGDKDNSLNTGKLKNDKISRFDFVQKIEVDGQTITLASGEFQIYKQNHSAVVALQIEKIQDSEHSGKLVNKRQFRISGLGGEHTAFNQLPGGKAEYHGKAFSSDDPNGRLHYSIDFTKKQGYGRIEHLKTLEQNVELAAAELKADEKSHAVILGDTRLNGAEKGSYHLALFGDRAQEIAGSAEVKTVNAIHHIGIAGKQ
# T7: fHbp m001660 (Neisseria meningitidis, fHbp …, point mutant)
# T7 chain: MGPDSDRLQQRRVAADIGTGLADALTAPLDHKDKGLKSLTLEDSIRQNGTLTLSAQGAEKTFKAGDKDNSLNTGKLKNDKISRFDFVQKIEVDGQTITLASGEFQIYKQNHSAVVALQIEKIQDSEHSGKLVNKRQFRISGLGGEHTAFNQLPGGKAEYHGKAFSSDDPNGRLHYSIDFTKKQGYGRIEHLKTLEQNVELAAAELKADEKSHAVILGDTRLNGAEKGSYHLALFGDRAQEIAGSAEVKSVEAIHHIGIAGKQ
# T8: fHbp m002256 (Neisseria meningitidis, engineered fHbp …, chimera)
# T8 chain: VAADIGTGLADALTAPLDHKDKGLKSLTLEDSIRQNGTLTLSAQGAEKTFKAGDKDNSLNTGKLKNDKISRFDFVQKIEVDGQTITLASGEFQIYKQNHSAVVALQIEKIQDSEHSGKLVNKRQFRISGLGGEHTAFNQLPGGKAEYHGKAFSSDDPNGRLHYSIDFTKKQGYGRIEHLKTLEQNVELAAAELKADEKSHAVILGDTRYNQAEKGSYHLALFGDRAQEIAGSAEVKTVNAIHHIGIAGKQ
# T9: fHbp m002281 (Neisseria meningitidis, engineered fHbp …, chimera)
# T9 chain: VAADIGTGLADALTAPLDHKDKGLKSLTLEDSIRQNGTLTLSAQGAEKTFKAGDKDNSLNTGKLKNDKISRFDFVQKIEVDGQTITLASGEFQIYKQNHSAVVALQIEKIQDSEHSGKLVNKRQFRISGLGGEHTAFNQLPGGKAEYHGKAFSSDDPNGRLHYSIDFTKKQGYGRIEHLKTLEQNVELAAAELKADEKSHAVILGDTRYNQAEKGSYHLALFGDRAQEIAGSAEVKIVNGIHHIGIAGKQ
# Assays:
# Test in all cases: BLI
# Conditions in all cases: both partners purified
# [1] = target: T1, fHbp m002333
# [2] = target: T2, fHbp m002417
# [3] = target: T3, fHbp m001207
# [4] = target: T4, fHbp m001768
# [5] = target: T5, fHbp m001661
# [6] = target: T6, fHbp m001690
# [7] = target: T7, fHbp m001660
# [8] = target: T8, fHbp m002256
# [9] = target: T9, fHbp m002281
Binder,Kd [1],koff [1],kon [1],Kd [2],koff [2],kon [2],Kd [3],koff [3],kon [3],Kd [4],koff [4],kon [4],Kd [5],koff [5],kon [5],Kd [6],koff [6],kon [6],Kd [7],koff [7],other results
"chimeric antibody h12C1 (antibody, V domains shown, also called humanized 12C1; source: Expi293, purified (MabSelect SuRe, SEC); copies: 2 + 2) VH: QVQLQESGPELVKPGASVKISCKASGYSFSDYNMSWVKQSNGKSLEWIGIIDPKYGTINYNQKFKGKATLTVDQASSTAYMQLNSLTSEDSAVYYCVRDYYGSSYFDYWGQGTTLTVSS VL: DIVLTQSPSSIYASLGERVTLTCKASQDIHNYLNWFQQKPGKSPKTLIYRANRLVDGVPSRFSGGGSGQDYSLTISSLEFEDIGIYYCLQYDEFPPTFGGGTRLEIK",166 nM,0.01686 ± 0.000166 s⁻¹,102000 ± 4590 M⁻¹ s⁻¹,95.7 nM,0.00962 s⁻¹,101000 ± 1890 M⁻¹ s⁻¹,80.8 nM,0.014 s⁻¹,174000 ± 4810 M⁻¹ s⁻¹,5.51 nM,0.000453 s⁻¹,82200 ± 1160 M⁻¹ s⁻¹,167 nM,0.0207 ± 0.000141 s⁻¹,124000 ± 4490 M⁻¹ s⁻¹,0.525 nM,0.000185 s⁻¹,351700 ± 1560 M⁻¹ s⁻¹,139 nM,0.0649 ± 0.00238 s⁻¹,kon [7]: 466000 ± 71500 M⁻¹ s⁻¹; Kd [8]: 43.6 nM; koff [8]: 0.0102 s⁻¹; kon [8]: 235000 ± 5060 M⁻¹ s⁻¹; Kd [9]: 34.9 nM; koff [9]: 0.0105 s⁻¹; kon [9]: 300000 ± 6700 M⁻¹ s⁻¹
"mAb 1E6 (human) (antibody, V domains shown, source: Expi293, purified (MabSelect SuRe, SEC); copies: 2 + 2) VH: EVQLVQSGAEVKKPGSSVKVSCKASGGTVIDYPITWVRQAPGQGLEWVGGFVPLFRTSNYGQKFQGRVTITADKSTSTASMELNSLTSEDTAIYYCARGDTAMGPFDYWGQGTLVTVSS VL: SYVLTQPPSLSVAPGKTATLTCGGNNIAGKTVHWYQQRPGQAPVLVISYDSDRPSGIPERFSGSNSANTATLTISRVEAGDEADYYCQVWDRNSDHWVFGGGTKLTVL",0.0267 nM,6.18e-06 s⁻¹,231300 ± 2110 M⁻¹ s⁻¹,0.502 nM,0.000179 s⁻¹,356800 ± 1380 M⁻¹ s⁻¹,0.336 nM,0.000155 s⁻¹,459700 ± 4080 M⁻¹ s⁻¹,0.538 nM,0.000175 s⁻¹,325000 ± 2320 M⁻¹ s⁻¹,0.678 nM,0.000193 s⁻¹,285300 ± 2180 M⁻¹ s⁻¹,0.678 nM,0.000298 s⁻¹,438900 ± 1790 M⁻¹ s⁻¹,0.706 nM,0.000209 s⁻¹,kon [7]: 296000 ± 3450 M⁻¹ s⁻¹; Kd [8]: 0.23 nM; koff [8]: 0.000106 s⁻¹; kon [8]: 460600 ± 4450 M⁻¹ s⁻¹; Kd [9]: 0.217 nM; koff [9]: 0.0001 s⁻¹; kon [9]: 462500 ± 3370 M⁻¹ s⁻¹
